The subject of one data set is CaMKI, HDAC5. Put plainly: Phosphorylation of CaMKI and HDAC5 in C2C12 myocytes (immunoblotting). In kind it is cell-based, mouse. The conditions noted are these: adiponectin 30 μg/ml, 0-20 min. As for the experimental part: (§1) The mouse C2C12 myoblasts were grown in 90% Dulbecco's modified high glucose Eagle's medium containing 10% (v/v) fetal bovine serum. When the cells reached 80% confluent, the myoblasts were induced to differentiate into myocytes by replacing the medium with a low serum differentiation medium (98% Dulbecco's modified high glucose Eagle's medium, 2.5% (v/v) horse serum). The medium was changed daily. The C2C12 cells were transfected by using Pofectamine 2000 (Invitrogen) and following the manufacturer's instructions.
(A western blot detects proteins with antibodies after separation by electrophoresis.)

Data set [1] can be described thus: Plasma adiponectin level after intravenous injection of adiponectin. The data set is classed as in vivo. To be noted: 30 μg per 10 g body weight intravenously through inferior vena cava catheter, mice. From the text: (§2) Mouse full-length adiponectin was generated as described in the following documents (Nature Med. 8, 1288-1295 (2002); Nature Med. 7, 941-946 (2001); Nature 423, 762-769 (2003)).

In a further data set the test system is PGC-1α. Put plainly: PGC-1α acetylation (acetyl-lysine on immunoprecipitates) in C2C12 myocytes. In kind it is cell-based, mouse. The conditions noted are these: treatment for 2 hr. As to the method: as §1
Data set [2] has as its target T1, AdipoR1 (Mus musculus, UniProt Q91VH1).
T1 sequence (Q91VH1 1-375): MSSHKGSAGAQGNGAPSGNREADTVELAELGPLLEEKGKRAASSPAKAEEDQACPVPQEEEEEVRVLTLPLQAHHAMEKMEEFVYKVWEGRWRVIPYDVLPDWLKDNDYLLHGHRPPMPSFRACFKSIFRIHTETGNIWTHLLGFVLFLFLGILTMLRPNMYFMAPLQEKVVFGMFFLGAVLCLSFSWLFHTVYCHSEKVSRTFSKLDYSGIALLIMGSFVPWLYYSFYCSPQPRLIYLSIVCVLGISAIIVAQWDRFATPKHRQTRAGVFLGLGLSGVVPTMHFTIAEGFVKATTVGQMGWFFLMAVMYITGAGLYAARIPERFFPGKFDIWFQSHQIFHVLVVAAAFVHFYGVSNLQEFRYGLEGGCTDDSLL
The data set can be described thus: Calcium imaging in skeletal muscle (soleus, fura-2). In kind it is cell-based, mice. Details: from tissue; host or cells: soleus muscle of control (Adipor1 lox/lox) and muscle-R1KO mice. To be noted: adiponectin 30 μg/ml. As to the method: From 8-10 weeks-old mice, soleus muscles were dissected. Preparations were treated with 5 μM fura-2/AM in the presence of 0.1% Chremophore EL (Sigma) for 15 min. Fluorescence images were acquired using an inverted fluorescence microscopy (IX71, Olympus) equipped with a cooled charge-coupled device (CCD) camera (iXon, Andor) and a dry objective lens (10×, NA=0.3, Olympus) through a filter set consisting of a 327-353 nm and 369-391 nm excitation filter, a 409 nm dichroic mirror, and a 515-560 nm fluorescent filter. Ligands were supplied using the superfusing Ringer's solution (150 mM NaCl, 4 mM KCl, 2.0 mM CaCl2, 1.0 mM MgCl2, 30 mM D-glucose, 5 mM HEPES (pH 7.4)).

Data set [3] addresses T1, AdipoR1. Put plainly: Calcium imaging in C2C12 myocytes (fura-2). In kind it is cell-based. Details: endogenous in cells; host or cells: mouse C2C12 myocytes (differentiated from myoblasts). As for the experimental part: C212 myocytes cultured on glass base dishes (IWAKI) were treated with 2.5 μM fura-2/AM for 30 min. Fluorescence was measured with an Aquacosmos Calcium Imaging system (Hamamatsu Photonics). Ligands were delivered through the superfusing Ringer's solution (140 mM NaCl, 5.6 mM KCl, 5 mM HEPES, 2.0 mM sodium pyruvate, 1.25 mM KH2PO4, 2.0 mM CaCl2, 2.0 mM MgCl2, 9.4 mM D-glucose (pH 7.4)). For the calcium chelating experiment, EGTA solution (140 mM NaCl, 5.6 mM KCl, 5 mM HEPES, 2.0 mM sodium pyruvate, 1.25 mM KH2PO4, 2.0 mM MgCl2, 5.0 mM EGTA-2Na, 9.4 mM D-glucose (pH 7.4) was used for the bath solution. Fura-2 fluorescence ratios were calibrated to calcium ion signals.

In the next data set the test system is C2C12 myocytes. Put plainly: Mitochondrial content assay in C2C12 myocytes (mtDNA copy number, MitoTracker Green). The data set is classed as cell-based, mouse. As to the method: Mice used were from 8 to 10 week old at the time of the experiment. […] Induction of myogenic differentiation using C2C12 cells was carried out according to the method described in the following document (Nature Med. 8, 1288-1295 (2002)). By day 5, the cells had differentiated into multinucleated contracting myocytes. C2C12 myocytes were used after myogenic differentiation in all experiments.
as §1
Mitochondrial content assays were carried out as described in the following document (Cell Metab. 4, 75-87 (2006)), with slight modifications. Quantification of the mitochondrial content was conducted by using mtDNA and MitoTracker Green probe (Molecular Probes) according to the method as described in the following document (Obes. Res. 13, 574-581 (2005)). MitoTracker Green probe preferentially accumulates in mitochondria regardless of the mitochondrial membrane potential and provides an accurate assessment of mitochondrial mass. Cells were washed with PBS and after addition of 100 nM MitoTracker Green FM (Molecular Probes), incubated at 37° C. for 30 min. Cells were harvested by using trypsin/EDTA and resuspended in PBS. Fluorescence intensity was detected with excitation and emission wavelengths of 490 and 516 nm, respectively, and the values thus measured were corrected for total protein (mg/ml).

In another data set the test system is PGC-1α (Ppargc1a). Put plainly: Ppargc1a mRNA levels in skeletal muscle treated with adiponectin. The conditions noted are these: control littermates; adiponectin 30 μg per 10 g body weight, 10 min. In kind it is in vivo, mice. As for the experimental part:
as §2
Real-time PCR was carried out according to the method described in the following documents (Nature Med. 13, 332-339 2007); Nature 423, 762-769 (2003); J. Biol. Chem. 281, 8748-8755 (2006)). Total RNA was prepared from cells or tissues by using Trizol (Invitrogen) according to the manufacturer's instructions. Quantification of mRNA was conducted using a real-time PCR method (Nature 423, 762-769 (2003)) with slight modifications. The procedures used for immunoblotting are described in the following documents (Nature Med. 7, 941-946 (2001); J. Biol. Chem. 281, 26602-26614 (2006); J. Biol. Chem. 281, 8748-8755 (2006)). The livers or muscles were freeze-clamped in liquid nitrogen in situ (Nature Med. 7, 941-946 (2001); J. Biol. Chem. 281, 26602-26614 (2006); J. Biol. Chem. 281, 8748-8755 (2006)).

The mark [4] stands for this setting: C2C12 myocytes incubated with 30 μg/ml adiponectin.

The results in this text go back to patent US20130273567A1, “Screening Method for Candidate Agonist Compounds for Adiponectin Receptor I” (priority 2010, published 2013).

B1: adiponectin: recombinant murine full-length adiponectin, internal ligand of adiponectin receptor 1 (protein, UniProt Q60994 1-247, looked up)
chain: MLLLQALLFLLILPSHAEDDVTTTEELAPALVPPPKGTCAGWMAGIPGHPGHNGTPGRDGRDGTPGEKGEKGDAGLLGPKGETGDVGMTGAEGPRGFPGTPGRKGEPGEAAYVYRSAFSVGLETRVTVPNVPIRFTKIFYNQQNHYDGSTGKFYCNIPGLYYFSYHITVYMKDVKVSLFKKDKAVLFTYDQYQEKNVDQASGSVLLHLEVGDQVWLQVYGDGDHNGLYADNVNDSTFTGFLLYHDTN
modifications: full-length
On to B1, for which, in the data set with CaMKI, HDAC5, the CaMKI phosphorylation result is “rapid, robust, and transient increase”; the HDAC5 phosphorylation entry is listed as “increased”. In addition, in data set [1], the plasma adiponectin levels result is listed as “approximately 30 μg/ml”. Moreover, the PGC-1α acetylation result in the data set with PGC-1α is on record as “decreased”. Further, in the data set with AdipoR1 [2] (control mice), the “intracellular calcium ion concentration in soleus muscle (fura-2)” value is recorded as “increased”. In addition, in the data set with AdipoR1 [2] (muscle-R1KO mice), the “calcium responses of soleus muscle to adiponectin” value is reported as “almost completely disappeared”. The “dose dependence of calcium response” value with AdipoR1 [3] is given as “dose-dependent responses”. Besides, in the data set with AdipoR1 [3] (adiponectin 30 μg/ml, 1 min), the “intracellular calcium ion concentration (fura-2-based fluorescent imaging)” value is “increased”. Besides, in the data set with C2C12 myocytes (C2C12 myocytes expressing PGC-1α-R13 mutant), the mitochondrial biogenesis entry is given as “failed to further induce”. In the data set on C2C12 myocytes (setting [4]), the “amount of mitochondria as assessed by MitoTracker green” value is reported as “increased” and the “mitochondrial DNA content” value is on record as “increased”. Besides, the “expression levels of Ppargc1a in muscle” value with PGC-1α (Ppargc1a) is listed as “increased”.
